Consider two molecules from paper PMC8262884.

Assay [1] deals with native phosphoenolpyruvate carboxykinase (PEPCK) (Trypanosoma brucei (endogenous in EATRO1125.T7T procyclic cells)).
In assay [2] the target is TY-tagged phosphoenolpyruvate carboxykinase (TY-PEPCK) (Trypanosoma brucei). Kind of assay: proximity ligation; Duolink In Situ Red mouse/rabbit kit on PFA-fixed, Triton X-100-permeabilized Δpepck/TY-PEPCK/UGP-MYC.i procyclic cells; rabbit anti-MYC and mouse anti-TY1; cell lines with only one tagged protein as negative controls.

B1: TY-UGP_(1-485) (enzyme)
chain: MPLNPPSAFSGAALACLEKMQASGVEEKCIHIFLIQHALVRKGETGYIPEKSISPVESLPFLQGIETKGENTALLRQAVVLKLNGGLGTGMGLNGPKSLLQVKNGQTFLDFTALQLEHFRQVRNCNVPFMLMNSFSTSGETKNFLRKYPTLYEVFDSDIELMQNRVPKIRQDNFFPVTYEADPTCEWVPPGHGDVYTVLYSSGKLDYLLGKGYRYMFISNGDNLGATLDVRLLDYMHEKQLGFLMEVCRRTESDKKGGHLAYKDVIDETTGQTRRRFVLRESAQCPKEDEDSFQNIAKHCFFNTNNIWINLMELKKMMDEQLGVLRLPVMRNPKTVNPQDSQSTKVYQLEVAMGAAISLFDRSEAVVVPRERFAPVKTCSDLLALRSDAYQVTEDQRLVLCEERNGKPPAIDLDGEHYKMIDGFEKLVKGGVPSLRQCTSLTVRGLVEFGADVSVRGNVVIKNLKEEPLIIGSGRVLDNEVVVVE
With B1, in assay [1], the glycosomal import of the tagged UGP (Western blot of glycosomal and cytosolic fractions), against native UGP in parental cells was 9 fold.

B2: MYC-tagged UDP-glucose pyrophosphorylase (UGP-MYC) (enzyme)
chain: MPLNPPSAFSGAALACLEKMQASGVEEKCIHIFLIQHALVRKGETGYIPEKSISPVESLPFLQGIETKGENTALLRQAVVLKLNGGLGTGMGLNGPKSLLQVKNGQTFLDFTALQLEHFRQVRNCNVPFMLMNSFSTSGETKNFLRKYPTLYEVFDSDIELMQNRVPKIRQDNFFPVTYEADPTCEWVPPGHGDVYTVLYSSGKLDYLLGKGYRYMFISNGDNLGATLDVRLLDYMHEKQLGFLMEVCRRTESDKKGGHLAYKDVIDETTGQTRRRFVLRESAQCPKEDEDSFQNIAKHCFFNTNNIWINLMELKKMMDEQLGVLRLPVMRNPKTVNPQDSQSTKVYQLEVAMGAAISLFDRSEAVVVPRERFAPVKTCSDLLALRSDAYQVTEDQRLVLCEERNGKPPAIDLDGEHYKMIDGFEKLVKGGVPSLRQCTSLTVRGLVEFGADVSVRGNVVIKNLKEEPLIIGSGRVLDNEVVVVE
For the molecule B2, the percent of PLA-positive cells in assay [2] was found to be 62%.
